Experimental data taken from the supplement of paper PMC10065799, “High-throughput profiling of sequence recognition by tyrosine kinases and SH2 domains using bacterial peptide display” (eLife, 2023).

Assays:
AncSZ = assay: phosphorylation enrichment, bacterial display (enrichment ratio); higher = better substrate or ligand; peptides without Tyr show the background
EPHB1 = EPHB1 (UniProt P54762); assay: as above
EPHB2 = EPHB2 (UniProt P29323); assay: as above
FGFR1 = FGFR1 (UniProt P11362); assay: as above
FGFR3 = FGFR3 (UniProt P22607); assay: as above
Sequence of FGFR3 (P22607 whole entry, looked up): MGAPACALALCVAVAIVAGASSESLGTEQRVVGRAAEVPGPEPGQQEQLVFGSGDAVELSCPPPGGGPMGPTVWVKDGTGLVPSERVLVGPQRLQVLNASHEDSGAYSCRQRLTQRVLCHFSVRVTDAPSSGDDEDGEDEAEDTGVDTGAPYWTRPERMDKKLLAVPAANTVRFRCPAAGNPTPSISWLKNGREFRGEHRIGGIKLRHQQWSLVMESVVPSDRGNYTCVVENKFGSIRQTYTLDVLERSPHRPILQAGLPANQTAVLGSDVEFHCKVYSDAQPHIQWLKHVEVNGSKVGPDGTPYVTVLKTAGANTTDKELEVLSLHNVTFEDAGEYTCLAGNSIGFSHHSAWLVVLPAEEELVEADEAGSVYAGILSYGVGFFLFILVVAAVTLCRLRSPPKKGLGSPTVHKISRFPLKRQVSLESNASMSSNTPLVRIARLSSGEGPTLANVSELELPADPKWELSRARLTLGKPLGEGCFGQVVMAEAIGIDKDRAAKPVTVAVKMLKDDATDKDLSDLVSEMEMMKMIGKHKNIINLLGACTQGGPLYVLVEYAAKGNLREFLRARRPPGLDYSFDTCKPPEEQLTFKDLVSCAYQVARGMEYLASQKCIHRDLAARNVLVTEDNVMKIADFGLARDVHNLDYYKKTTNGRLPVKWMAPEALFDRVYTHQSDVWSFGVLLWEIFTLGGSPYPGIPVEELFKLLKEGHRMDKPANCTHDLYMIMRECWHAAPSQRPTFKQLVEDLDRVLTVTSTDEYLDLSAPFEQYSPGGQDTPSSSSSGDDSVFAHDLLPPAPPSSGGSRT

Fer (mouse) = assay: as above
Fes = Fes (UniProt P07332); assay: as above
Sequence of Fes (P07332 whole entry, looked up): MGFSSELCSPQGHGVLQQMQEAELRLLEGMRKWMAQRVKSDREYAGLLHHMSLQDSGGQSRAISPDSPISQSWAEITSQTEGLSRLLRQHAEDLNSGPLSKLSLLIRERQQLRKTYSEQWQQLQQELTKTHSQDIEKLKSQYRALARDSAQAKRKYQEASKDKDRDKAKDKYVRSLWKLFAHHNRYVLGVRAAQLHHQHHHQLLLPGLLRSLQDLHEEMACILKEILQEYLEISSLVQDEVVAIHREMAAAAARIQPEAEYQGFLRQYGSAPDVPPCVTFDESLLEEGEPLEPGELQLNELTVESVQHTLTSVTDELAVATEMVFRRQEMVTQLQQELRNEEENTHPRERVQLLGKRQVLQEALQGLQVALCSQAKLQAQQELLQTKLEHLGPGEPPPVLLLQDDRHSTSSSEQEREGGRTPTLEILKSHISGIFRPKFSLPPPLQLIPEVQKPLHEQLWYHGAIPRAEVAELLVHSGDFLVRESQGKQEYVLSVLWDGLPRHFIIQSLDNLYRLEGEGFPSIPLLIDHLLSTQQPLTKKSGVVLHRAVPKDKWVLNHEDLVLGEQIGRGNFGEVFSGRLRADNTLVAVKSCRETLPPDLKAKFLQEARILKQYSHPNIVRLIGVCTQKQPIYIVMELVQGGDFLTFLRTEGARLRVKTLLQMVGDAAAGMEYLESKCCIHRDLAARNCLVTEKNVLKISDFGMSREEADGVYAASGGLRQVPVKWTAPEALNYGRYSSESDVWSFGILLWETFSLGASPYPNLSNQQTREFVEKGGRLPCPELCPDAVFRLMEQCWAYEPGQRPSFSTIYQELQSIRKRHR

Fyn = Fyn (UniProt P06241); assay: as above
Sequence of Fyn (P06241 whole entry, looked up): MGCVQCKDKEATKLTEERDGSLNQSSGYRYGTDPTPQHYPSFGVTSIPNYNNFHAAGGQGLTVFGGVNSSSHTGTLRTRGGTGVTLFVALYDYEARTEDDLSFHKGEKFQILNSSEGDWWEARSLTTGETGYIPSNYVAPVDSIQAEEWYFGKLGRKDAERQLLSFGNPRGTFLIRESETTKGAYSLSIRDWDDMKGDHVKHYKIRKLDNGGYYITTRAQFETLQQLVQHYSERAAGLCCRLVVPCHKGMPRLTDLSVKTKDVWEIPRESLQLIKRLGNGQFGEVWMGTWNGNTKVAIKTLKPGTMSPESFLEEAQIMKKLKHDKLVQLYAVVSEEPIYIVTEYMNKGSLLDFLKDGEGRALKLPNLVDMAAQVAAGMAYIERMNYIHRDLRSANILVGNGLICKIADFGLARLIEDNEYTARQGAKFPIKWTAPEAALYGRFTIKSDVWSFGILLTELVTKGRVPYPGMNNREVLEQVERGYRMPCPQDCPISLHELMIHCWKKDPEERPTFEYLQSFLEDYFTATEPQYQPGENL

Hck = Hck (UniProt P08631); assay: as above
Sequence of Hck (P08631 whole entry, looked up): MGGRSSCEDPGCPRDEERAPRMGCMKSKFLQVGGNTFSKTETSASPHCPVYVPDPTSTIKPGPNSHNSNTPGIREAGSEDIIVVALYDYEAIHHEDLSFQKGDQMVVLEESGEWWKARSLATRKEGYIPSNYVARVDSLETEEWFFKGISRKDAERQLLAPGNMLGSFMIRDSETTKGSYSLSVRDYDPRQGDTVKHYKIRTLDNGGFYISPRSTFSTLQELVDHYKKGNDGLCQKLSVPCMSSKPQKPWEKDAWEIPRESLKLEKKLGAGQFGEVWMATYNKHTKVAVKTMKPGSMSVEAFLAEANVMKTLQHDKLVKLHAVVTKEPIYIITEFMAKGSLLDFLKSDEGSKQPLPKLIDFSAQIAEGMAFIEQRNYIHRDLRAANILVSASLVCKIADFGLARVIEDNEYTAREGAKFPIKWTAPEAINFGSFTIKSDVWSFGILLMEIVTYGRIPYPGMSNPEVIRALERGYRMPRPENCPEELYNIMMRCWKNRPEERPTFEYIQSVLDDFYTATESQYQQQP

Jak2 = Jak2 (UniProt O60674); assay: as above
Sequence of Jak2 (O60674 whole entry, looked up): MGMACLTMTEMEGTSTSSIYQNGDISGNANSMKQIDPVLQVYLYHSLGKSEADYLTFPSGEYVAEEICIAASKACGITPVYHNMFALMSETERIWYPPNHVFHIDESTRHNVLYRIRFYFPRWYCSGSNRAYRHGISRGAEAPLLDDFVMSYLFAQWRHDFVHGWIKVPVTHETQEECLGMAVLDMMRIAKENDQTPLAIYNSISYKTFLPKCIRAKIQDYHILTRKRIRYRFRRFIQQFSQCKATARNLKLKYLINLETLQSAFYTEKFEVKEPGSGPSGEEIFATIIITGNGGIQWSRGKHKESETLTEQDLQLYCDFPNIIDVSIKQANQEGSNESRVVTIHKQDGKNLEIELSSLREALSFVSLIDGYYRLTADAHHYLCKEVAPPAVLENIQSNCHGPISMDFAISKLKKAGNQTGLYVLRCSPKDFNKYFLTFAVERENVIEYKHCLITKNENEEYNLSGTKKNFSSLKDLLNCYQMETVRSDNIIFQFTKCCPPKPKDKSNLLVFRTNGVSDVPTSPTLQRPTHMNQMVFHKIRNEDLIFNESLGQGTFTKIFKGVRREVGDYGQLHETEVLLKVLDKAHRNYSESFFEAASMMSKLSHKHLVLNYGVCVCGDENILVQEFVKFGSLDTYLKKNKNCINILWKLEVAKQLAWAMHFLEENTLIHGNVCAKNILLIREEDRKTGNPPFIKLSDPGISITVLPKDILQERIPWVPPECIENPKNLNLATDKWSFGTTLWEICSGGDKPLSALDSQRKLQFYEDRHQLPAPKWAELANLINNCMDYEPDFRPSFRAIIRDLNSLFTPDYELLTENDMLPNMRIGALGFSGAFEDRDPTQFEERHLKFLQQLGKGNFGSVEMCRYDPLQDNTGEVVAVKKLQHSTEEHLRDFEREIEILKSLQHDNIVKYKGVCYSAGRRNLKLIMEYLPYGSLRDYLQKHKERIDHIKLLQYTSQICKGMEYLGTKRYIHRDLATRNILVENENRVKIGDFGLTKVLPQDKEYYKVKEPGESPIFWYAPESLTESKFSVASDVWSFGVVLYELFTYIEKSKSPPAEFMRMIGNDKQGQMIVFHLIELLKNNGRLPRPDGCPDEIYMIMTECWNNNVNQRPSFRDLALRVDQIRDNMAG

MERTK = MERTK (UniProt Q12866); assay: as above
c-Abl (mouse) = assay: as above
c-Src = assay: as above
Grb2 SH2 = Grb2 SH2 (UniProt P62993); assay: SH2 binding enrichment of the phosphorylated peptide, bacterial display (enrichment ratio); higher = better substrate or ligand; peptides without Tyr show the background
SHP2-C SH2 = assay: as above
c-Src SH2 = assay: as above
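Throughout, for SH2 binding enrichment of the phosphorylated peptide, bacterial display: peptide library displayed on the E. coli surface as eCPX fusions, selected cells deep-sequenced, score is each peptide's frequency after selection divided by its frequency in the input.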
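Throughout, for phosphorylation enrichment, bacterial display: 11-residue human phosphosite peptides and single-mutation variants displayed on the E. coli surface, counted by deep sequencing, each peptide's frequency after selection divided by its frequency in the unselected input library; frequency after pTyr selection over input frequency; kinase dosed for 20-30% of maximal phosphorylation in three min.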

Sequence of EPHB2 (P29323 whole entry, looked up): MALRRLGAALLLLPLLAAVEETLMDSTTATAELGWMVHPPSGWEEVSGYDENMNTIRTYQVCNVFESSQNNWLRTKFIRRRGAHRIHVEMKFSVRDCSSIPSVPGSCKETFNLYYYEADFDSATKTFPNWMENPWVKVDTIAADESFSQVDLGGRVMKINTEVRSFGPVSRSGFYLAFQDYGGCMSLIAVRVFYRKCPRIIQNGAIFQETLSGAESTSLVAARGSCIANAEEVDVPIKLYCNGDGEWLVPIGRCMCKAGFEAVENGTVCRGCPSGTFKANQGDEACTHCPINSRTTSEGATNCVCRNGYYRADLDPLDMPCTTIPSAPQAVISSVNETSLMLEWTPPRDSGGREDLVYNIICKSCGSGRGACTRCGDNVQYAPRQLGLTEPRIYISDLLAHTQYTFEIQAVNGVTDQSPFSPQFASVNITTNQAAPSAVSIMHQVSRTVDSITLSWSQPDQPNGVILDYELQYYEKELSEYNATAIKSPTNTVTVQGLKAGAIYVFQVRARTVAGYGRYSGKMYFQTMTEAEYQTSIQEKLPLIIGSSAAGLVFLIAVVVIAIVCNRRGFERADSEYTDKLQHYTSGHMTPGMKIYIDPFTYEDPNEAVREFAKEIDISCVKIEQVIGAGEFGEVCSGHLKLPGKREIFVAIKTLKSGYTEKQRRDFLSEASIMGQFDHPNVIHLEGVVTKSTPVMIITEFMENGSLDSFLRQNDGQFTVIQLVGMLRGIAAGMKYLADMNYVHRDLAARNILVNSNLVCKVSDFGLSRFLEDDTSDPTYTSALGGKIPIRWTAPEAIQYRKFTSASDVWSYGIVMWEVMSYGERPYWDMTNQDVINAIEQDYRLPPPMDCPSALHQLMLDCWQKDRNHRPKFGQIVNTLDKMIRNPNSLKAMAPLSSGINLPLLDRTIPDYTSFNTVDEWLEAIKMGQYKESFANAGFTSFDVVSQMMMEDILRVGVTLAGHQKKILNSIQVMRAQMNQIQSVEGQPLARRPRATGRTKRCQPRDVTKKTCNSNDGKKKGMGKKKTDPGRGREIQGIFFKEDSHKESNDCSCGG

Row | Sequence | SH2 binding enrichment (Grb2 SH2) | SH2 binding enrichment (SHP2-C SH2) | SH2 binding enrichment (c-Src SH2) | phosphorylation enrichment (AncSZ) | phosphorylation enrichment (EPHB1) | phosphorylation enrichment (EPHB2) | phosphorylation enrichment (FGFR1) | phosphorylation enrichment (FGFR3) | phosphorylation enrichment (Fer (mouse)) | phosphorylation enrichment (Fes) | phosphorylation enrichment (Fyn) | phosphorylation enrichment (Hck) | phosphorylation enrichment (Jak2) | phosphorylation enrichment (MERTK) | phosphorylation enrichment (c-Abl (mouse)) | phosphorylation enrichment (c-Src)
1 | RGNMYYENSYA [EGFR_Y113] | 10.5 | 0.978 | 5.02 | 0.957 | 1.04 | 0.619 | 1.29 | 1.02 | 2.84 | 1.2 | 0.832 | 0.845 | 2.08 | 2.85 | 1.65 | 1.19
2 | GHNNVYISEHV [GRIN2A_Y1423_D1421N] | 0.915 | 0.759 | 0.469 | 0.734 | 0.374 | 0.459 | 0.421 | 0.463 | 0.393 | 0.6 | 0.475 | 0.476 | 0.769 | 0.419 | 0.522 | 0.425
3 | FECKWYIPLTD [BCR_Y756_D752E_YF] | 0.685 | 0.817 | 0.561 | 1.23 | 0.754 | 0.723 | 0.497 | 1 | 0.592 | 1.49 | 0.434 | 0.538 | 1.32 | 0.433 | 0.796 | 0.451
4 | EWLRRYLKNGK [HLA-C_Y195_E197K] | 0.656 | 0.409 | 0.436 | 0.68 | 0.373 | 0.578 | 0.507 | 0.516 | 0.471 | 0.636 | 0.439 | 0.522 | 0.679 | 0.581 | 0.546 | 0.504
5 | WKKKIYEESST [MOCS2_Y170_E168K] | 0.62 | 0.481 | 0.415 | 0.818 | 0.393 | 0.526 | 0.423 | 0.813 | 0.449 | 1.05 | 0.534 | 0.511 | 0.794 | 0.432 | 0.761 | 0.448
6 | SKAFAYVHFDS [PABPC5_Y149_G146A_YF] | 0.942 | 0.913 | 1.44 | 0.935 | 0.447 | 0.483 | 0.449 | 0.828 | 0.537 | 1.36 | 0.382 | 0.51 | 1.09 | 0.443 | 0.669 | 0.424
7 | ALWYIYSHTRS [ENG_Y614] | 0.931 | 0.711 | 0.451 | 1.1 | 0.679 | 0.768 | 0.487 | 1.03 | 0.572 | 1.33 | 0.47 | 0.523 | 1.14 | 0.418 | 0.807 | 0.423
8 | GREAEYSEKHG [EPHB4_Y574_D576E] | 0.742 | 0.476 | 0.442 | 0.681 | 0.514 | 0.487 | 0.418 | 0.544 | 0.398 | 0.697 | 0.354 | 0.444 | 0.59 | 0.368 | 0.631 | 0.396
9 | MQMEEYRGRVE [BTNL2_Y91_W94R] | 0.785 | 0.871 | 0.408 | 0.755 | 0.421 | 0.39 | 0.411 | 0.539 | 0.424 | 0.874 | 0.379 | 0.459 | 0.573 | 0.383 | 0.458 | 0.437
10 | YRIDHYLGKEM [G6PD_Y202] | 0.678 | 0.665 | 0.589 | 0.716 | 0.467 | 0.627 | 0.57 | 0.654 | 0.445 | 0.909 | 0.757 | 0.57 | 0.865 | 0.508 | 0.706 | 0.485
11 | SDGHEYIFVDR [PDGFRB_Y579_P584R_YF] | 0.845 | 0.676 | 0.636 | 0.962 | 0.427 | 0.448 | 1.04 | 0.833 | 0.329 | 0.759 | 0.436 | 0.398 | 0.71 | 0.35 | 0.489 | 0.517
12 | IVTLKYPIEHG [ACTB_Y69_L65V] | 0.77 | 0.807 | 0.45 | 0.698 | 0.434 | 0.412 | 0.523 | 0.702 | 0.489 | 0.76 | 0.483 | 0.466 | 0.74 | 0.481 | 0.871 | 0.422
13 | KSPGEYVNIEF [IRS1_Y896] | 3.04 | 1.26 | 4.93 | 0.906 | 0.653 | 0.736 | 1.35 | 1.06 | 0.505 | 0.812 | 0.49 | 0.575 | 0.623 | 0.546 | 0.706 | 0.47
14 | KLKNAYEESLE [MYH7_Y1488] | 0.531 | 0.761 | 0.654 | 0.982 | 0.491 | 0.445 | 0.65 | 0.612 | 0.454 | 1.14 | 0.429 | 0.384 | 0.908 | 0.452 | 0.743 | 0.472
15 | AHARMYGVLPW [PLP1_Y207_D203H] | 1.05 | 1.19 | 0.49 | 0.496 | 0.519 | 0.462 | 0.503 | 0.421 | 0.402 | 0.617 | 2.35 | 3.4 | 0.478 | 0.507 | 0.58 | 2.35
16 | AFAEVYEGQVS [ALK_Y1131_G1128A] | 0.888 | 0.769 | 0.506 | 1.07 | 0.559 | 0.504 | 0.414 | 0.695 | 0.518 | 0.974 | 0.563 | 0.796 | 1.09 | 0.484 | 0.868 | 1.21
17 | ENELTYYCYKK [CD59_Y86_C89Y] | 0.793 | 0.65 | 0.45 | 1.92 | 0.794 | 0.752 | 1.68 | 1.53 | 0.685 | 1.69 | 4.74 | 4.79 | 2.25 | 1.36 | 6.18 | 5.18
18 | GGPTYYIDTNA [ACTL6A_Y69] | 0.822 | 0.694 | 0.679 | 0.885 | 0.698 | 0.514 | 1.09 | 0.963 | 0.407 | 0.893 | 0.926 | 0.899 | 0.727 | 1.08 | 0.555 | 0.778

Continued, in another order:

Row | SH2 binding enrichment (Grb2 SH2) | SH2 binding enrichment (SHP2-C SH2) | SH2 binding enrichment (c-Src SH2) | Sequence | phosphorylation enrichment (AncSZ) | phosphorylation enrichment (EPHB1) | phosphorylation enrichment (EPHB2) | phosphorylation enrichment (FGFR1) | phosphorylation enrichment (FGFR3) | phosphorylation enrichment (Fer (mouse)) | phosphorylation enrichment (Fes) | phosphorylation enrichment (Fyn) | phosphorylation enrichment (Hck) | phosphorylation enrichment (Jak2) | phosphorylation enrichment (MERTK) | phosphorylation enrichment (c-Abl (mouse)) | phosphorylation enrichment (c-Src)
19 | 0.995 | 0.711 | 0.717 | ECKHLYSRKEG [PTPN11_Y263_L261H] | 0.451 | 0.406 | 0.285 | 0.463 | 0.397 | 0.4 | 0.579 | 0.407 | 0.329 | 0.419 | 0.388 | 0.458 | 0.388
20 | 0.992 | 0.75 | 0.513 | FFRKFCNKSED [RYR1_Y4864_Y4864C] | 0.981 | 0.515 | 0.381 | 0.49 | 0.6 | 0.417 | 1.04 | 0.589 | 0.603 | 0.779 | 0.518 | 0.677 | 0.442
21 | 0.835 | 0.698 | 0.62 | IRTDAYVWAMT [RPE65_Y89_R91W] | 1.07 | 0.573 | 0.6 | 0.613 | 0.75 | 0.554 | 1.11 | 0.446 | 0.517 | 0.904 | 0.413 | 0.724 | 0.372
22 | 0.697 | 0.584 | 0.648 | RGMVMYTSKDR [ZG16B_Y136] | 0.941 | 0.623 | 0.597 | 0.523 | 0.645 | 0.413 | 0.857 | 0.493 | 0.614 | 0.744 | 0.528 | 0.428 | 0.533
23 | 0.664 | 0.514 | 0.428 | RNFDTYTAGLS [RHBDD1_Y264_YF] | 0.62 | 1.9 | 3.55 | 0.407 | 0.355 | 0.394 | 0.802 | 0.9 | 3.7 | 0.511 | 0.452 | 0.436 | 1.15
24 | 1.3 | 1.08 | 0.918 | LFCVHYFHRTF [SRD5A2_Y91] | 2.32 | 1.26 | 1.24 | 1.04 | 1.97 | 1.47 | 2.73 | 1.04 | 1.16 | 2.73 | 0.989 | 2.35 | 1.14
25 | 0.823 | 0.608 | 0.472 | DVVKDYAFVHM [RBM14_Y114] | 0.929 | 7.47 | 5.38 | 3.87 | 2.45 | 2.58 | 0.933 | 0.419 | 0.435 | 0.661 | 0.574 | 0.659 | 0.466
26 | 0.879 | 0.705 | 0.478 | KCCCIYEKPRA [PPP1R11_Y64] | 2.23 | 1.07 | 1.06 | 0.523 | 0.814 | 8.2 | 1.46 | 1.95 | 2.67 | 1.34 | 1.65 | 7.54 | 3.6
27 | 0.863 | 0.675 | 0.62 | VCDALYPPGPP | 0.779 | 0.465 | 0.329 | 0.421 | 0.467 | 0.489 | 0.794 | 0.306 | 0.288 | 0.73 | 0.282 | 0.766 | 0.443
28 | 0.837 | 0.583 | 0.748 | HLQQSNLPRGT [TEX45_Y396_Y396N] | 0.639 | 0.447 | 0.451 | 0.491 | 0.644 | 0.279 | 0.757 | 0.445 | 0.534 | 0.689 | 0.467 | 0.703 | 0.42
29 | 1.66 | 1.28 | 1.15 | LVIIKYLPEWT [PSEN1_Y240_F237I] | 3.39 | 2.33 | 2.39 | 1.38 | 2.62 | 0.911 | 2.86 | 1.75 | 1.21 | 2.79 | 1.03 | 1.5 | 0.818
